From the DeepSol protein solubility set

Assay: soluble on expression in E. coli; label from the status in PepcDB or PDB records

Row | Sequence | soluble on expression in E. coli
1 | MSLNTPVEFNLPDSIELEREEVEEDLLTSGDEILLSYSSYIPPKLHSMTSHLQLRVDFFVNLLQFTRANFIYKVSPQVKLKLLESYEILNCSLSLSSYLSSDTDLTTQWHRVLLSEEVTEEELMLHQLKRFPELFGKFLAEIDEPLRSSSDIKFKVAAADLVNCVIYHSCLERGESEYRCNQLNLDLTEVGDDLPWFINFSIPDSLNKILLHLFYSFEDGNVPDEYHDKLLEIIKSLYYMCKQSDVWYAVKGSNAYEAGYQGFNLNSTLSNHLTWIQILLKIGRSVDALNIADFYHDLSGLVETLSSFDYEKAHPLYEEYFTKYGYQFSKTLFTTVIEQGKINDLFSRFPSHHDDLVRFFDEYPQYGHVSWIGNIFDQQYNAAAEVLVSVSSPDAAKKLDLNQLQVRLSIAKLSALAEEPILNMDLLNTIQSGLDLIDSQKKAAELAGEHTSLSKRYLETESHYQSILEKLKTNIVLSEYELVGIYTVLDDVTAFAKALHFLSLIKTIPEDSRQFLVSMIWRKCILFNDWNHTSDDLSTALYATLLAFFKEEYYRAGIPLPHVPKLTAPISKDTLSEQLFAGVECGNLLLDGAEADTSALSAVQTDMESRIRFLIGSAHSEAGASCVVNYETNTVDEGHHHHHH | soluble
2 | MGSDKIHHHHHHMSLEATDSKAMVLLMGVRRCGKSSICKVVFHNMQPLDTLYLESTSNPSLEHFSTLIDLAVMELPGQLNYFEPSYDSERLFKSVGALVYVIDSQDEYINAITNLAMIIEYAYKVNPSINIEVLIHKVDGLSEDFKVDAQRDIMQRTGEELLELGLDGVQVSFYLTSIFDHSIYEAFSRIVQKLIPELSFLENMLDNLIQHSKIEKAFLFDVNSKIYVSTDSNPVDIQMYEVCSEFIDVTIDLFDLYKAPVLRNSQKSSDKDNVINPRNELQNVSQLANGVIIYLRQMIRGLALVAIIRPNGTDMESCLTVADYNIDIFKKGLEDIWANARASQAKNSIEDDV | not soluble
3 | MAAGSMDGIFRNIFEGCISSCDSSIQRRPYHKNCGCALHERSRGGGSATPCRHGRSEVVMFPIQRSWSEGNSLALHLASSSSSSNLQSLSSSSSISTLASLSSTVSDIDSPI | soluble
4 | MSLRIAIVGAGALGLYYGALLQRSGEDVHFLLRRDYEAIAGNGLKVFSINGDFTLPHVKGYRAPEEIGPMDLVLVGLKTFANSRYEELIRPLVEEGTQILTLQNGLGNEEALATLFGAERIIGGVAFLCSNRGEPGEVHHLGAGRIILGEFLPRDTGRIEELAAMFRQAGVDCRTTDDLKRARWEKLVWNIPFNGLCALLQQPVNLILARDVSRKLVRGIMLEVIAGANAQGLATFIADGYVDDMLEFTDAMGEYKPSMEIDREEGRPLEIAAIFRTPLAYGAREGIAMPRVEMLATLLEQATGEGHHHHHH | soluble
5 | MSLDCFAPAVLGMPAFDRHATWQAMHATTHFIGRVGVAQVGLCAMNLALWDIQLKIEEVPLWRHLGPVKDRVKAYNTDGGWLTWTTAEVIDDMHHIINRGFDAVKMKLGRSDPMEDFQRVRAVRQAIGDDIKLMVDVNTVWDLETAIQWGKRLEELNVEWLEEPLHPFDVRSHAALAKAIRTPIAVGETVYTVYGFREYIAQEAAGVLQADVTKLSGIEEWLEVAAIGQTHGLQVIPHTNVQQNVHVQLAAATTNTPMIECCYESLFEIWENPVRVVDGFYTLPDVPGINGKLTETVLEKFRVSEGHHHHHH | soluble
6 | MGSDKIHHHHHHMSRILITCAITGSIHTPSMSPYLPVTADEITQQAVDAADAGAAILHLHARDPETGRPSAEIGHFMGFLPRIKQSCEAVLNLSTGGSAVMTLDQRLAAPKQAAPEMCSLNMGTMNFALYPAADRISDWKHDWEEPFLRGSDDLVFKNTPRDMALILGEMGTKRGARFEFEVYDVGHLYMLRHFVDRGLVQGPLFIQFVFGVLGGIGPDPENLMHMKTVADKLFGQDYLFSVLAAGRHQIPLVTMAAAMGGHVRVGLEDSLMISRGVLARSNAEQVRKIRRIVEDLGREVASPGEARAMLGLKGADRTAF | not soluble
7 | MRVARLFRFPVKGFPAEEIPEADVRTGRGIRGDRVAAFTNGSLDIPDDSWHRYSAFTVLKNDTDLQKWQVELDLAEAADSSQPAVADPSATVTLTSPQNETTTFRTDDRDTRATSADFLSARIPPQGDFPRALSVADQGMFDSQAAGVSIINPATVAAISQTADGQAALAPGETELDPLRFRGNVLVDGLAPFEEFALIGKIVRLGGVRLAITQAIERCPATTVNPTTTAVDVNVPRVLASACGHLHCGVYGRILESGLVSTGDEIEIEGDAPRELVKTARTPRFMTVLGSQQICNDIVEVSLRDDQGWIREFDEPGTNLRVHLDLGEPFWRTYTITDVSDDIVSIAVRTQGKGSRAVAELAAGQSVLASGPHGTMTANRVFGGTTALVTAGIGITPSLGLMRGAELSGTEKIKLFHVDRDHRTACLWDRLQKRAHSRQIPVETHHRDTASQGRPGHADLVDWLAGCDNVMVCGPADFTRAVLDASAEAGVPAVHQEIFASPNTGMSEAIAQCSPAEVTLENSGTSFLWEPQQGTLLEALEARGLRADNSCRGGSCGTCAVSLAAGSVIYPVEPAARIAADEVLVCSAVPSGPISLGILEHHHHHH | not soluble
8 | MAHHHHHHMTRVLVNREDCSVQVKGDLITFLYATVAKDPLVVASRNVTQLLRSRKDDTAAKLVADGESYVLKFESLRDREGFIESIVRAQEAEQALSNDEWVASTICHAAVDVGVLDQEELRAIMSAAGQRGVEQAFDALETLVDRETFQLLPITEQMENDVLRQTPVLAAIFQERVVDKETKKSFWEAVVRKYFCFSRTFLEEDIQRLEGARSVATAASPPLSGSAATSSLSVINASSMCALPKGAATAMLDTDINEEDLLHLDENVEPLQQSFHGLFAAHRHLPVGSASVLPVNGAALPFPQETAEPSPVYRPRFVGFRVLHQLPSETIEKAALETLRTFWRSSVKQRRSILAKYTRISKKGGGGFIQRMCLEQADRAVQNT | not soluble
9 | MAHHHHHHMLRGVTIKCGNVTNAVRVPSRFISMAPTRNEEKATQKRNKWEYILSLDEALYLSKEMGIKTTTEVQKIVMRSPPFSPDMSPFLIDNFLCSANRGSHSDEIAQIDQKLKALEERGDNSQESEKGEVQVALHNNEMNDTAQNREEDIINKILIDKFNKKRGKTFIHNDMEWLEESEGIGTNKRSSAYVYIKRGSGIVKVNDEEDLYIRWPYFYNRMDVLEPFYVTNTACVFDVFIKLKGGGISGQSKAARLAVGRALLNACPLIYDELKQHHILYEDMRQKLPKMPGRKKSRAMKQWSKR | not soluble
10 | QDIAADIAPERVSNDPLVNLGEAVVEEEEKVGALEDLFMETKQDGVNTDDPIAHLKFSMQREDDYLIRDVEKPEPAPAKTIENTRQVVDDSFSIHSEFDIPNLIPEDWLGGVATSKESVEPAAEQAKQAAFIPEDFAHTKPVSPQASVVQPDVNQPQQPQYEAPLSHATSNVTQRAEPVSQKWEEVTQAFVPSAQPTQPETKAKEAQQGFVSNESLAIESVAHSSDIGKAFYEGLGISNPDLISNEALLFKQMGACLRLCIDNLQKDLHEVESLKGEQGLSEADSNLAELMLTLNSQNLLSPNELVEQMLDELNDHQIIFNKALNELLIEQSETNDPVMFANDVASKSMFTTKSKLWGEYLEFYANNRRQMNETSLKGLIKKNYTKAIKGSHA | not soluble
11 | MGSDKIHHHHHHAACSNDEKITESTPKTVALTVKLPEFGGASSRAIDPETTTGNKVTINGPVKIIARVSQGGAITNTISENITAGSMSTITVSGAAQWIEVEANGDNSTETDNVNTRQGSATSSKVRLFGGATINPGSGGNATCTPTISPDMARVEVKGSLGTSWTHLTDLKVKGIYINNIKLTRGVSSLTRIASAAWNTEYAPSGKFEKMFNDNLGGVGAGAGVAQITPGQADGYNFFPQKDNTLPLPTTKEDVMKNSIHIIMEVEFTRADGVPVVGPQWLNVVALKDNTATNYITDFEAGNVYSIDLADIKDIMDVPVPPVTPNPDPETVSVDLTVSIGQWTVVQVKPEV | not soluble
12 | GSPGIPGSTRMAYQHCPFDTLLILDFETTSDAANQDYPCEVIQFAIVAYDVPNDKIREDISFNKYVKPVLNRTLTKNCVDFTGIPQRSIDTADTFDVVYEQFQQWLITLGLEEGKFAFVCDSRQDLWRIAQYQMKLSNIQMPAFFRQYINLYKIFTNEMDRMGPKELSATTNIGKMNEYYDLPTIGRAHDAMDDCLNIATILQRMINMGAKVTVNELLTCCASWRRQPLVYNKEWRSSFMDAGKIFERVLPLVVTTIRAGDFRLEMYGVCRYCRKGMDVCGTSHQQTPHDLYKNEEDPIHFAKIAGYY | soluble
13 | MHLPQMGYDRAITVFSPDGRLFQVEYAREAVKRGATAIGIKCKEGVILIADKRVGSKLLEKDTIEKIYKIDEHICAATSGLVADARVLIDRARIEAQINRLTYDIPITVKELAKKICDFKQQYTQYGGVRPFGVSLLIAGVNEVPKLYETDPSGALLEYKATAIGMGRMAVTEFFEKEYRDDLSFDDAMVLGLVAMGLSIESELVPENIEVGYVKVDDRTFKEVSPEELKPYVERANERIRELLKK | soluble
14 | MFIYCIPLISQSMIPMALDKTINVMKVTGMFAATYFTGDNRTPFFAFIICLKSFKLENMDQPPKNKSNIFPAVEDSLLLEHHHHHH | not soluble
15 | MSLNQKDPVTDDITGGWYEQDIRQLAARGIMQGEGNGKYFPERLVTRAEFATLITRALQLPSGNAKFTDLEQVHPSLRDGINRAASAGIIRGRGDNTFDPNTTITREEAVIMIDRSLKHAGIFAKQVELPFVDQNLIYAKQEVQRVYGFGIVKGNEFNQFVPKGPSQRAHAAAFINRMLSVIEAEGHHHHHH | soluble
16 | MSVSPFFNPKRDSQLGEMMRDMGGMQRRLMPISGTFNPMTDDSEIMNSNDKFAVNLNVSNFKPEELKVNLEGRQLSIQGEHDVENEHGASRKSFSRMILLPEDVDITSVATNLSNDGKLCIEAPKLEGVCGRSVPVKEASMDHHHIE | not soluble
17 | MLCAVYKSSRKADTYLFVNKRDCFDDVPQALLDMFGVPQLVMVFPIVKRESLGIADINKVRAALEEKGFYLQIPPPQVNLLAEHRENLGIKD | soluble
18 | MASSKNYLEFVLEQLSGLDDVTYRSMMGEYILYFRGKIIGGIYDDRFLVKPVQAVLDKIDQSSFEFPYKGAKEMI | not soluble
19 | RVARGWGGCGACGGSGIVGQGKGEPSRRRGRAAGRPQSMERGKMAEAESLETAAEHERILREIESTDTACIGPTLRSVYDGEEHGRFMEKLETRIRNHDREIEKMCNFHYQGFVDSITELLKVRGEAQKLKNQVTDTNRKLQHEGKELVIAMEELKQCRLQQRNISATVDKLMLCLPVLEMYSKLRDQMKTKRHYPALKTLEHLEHTYLPQVSHYRFCKVMVDNIPKLREEIKDVSMSDLKDFLESIRKHSDKIGETAMKQAQQQRNLDNIVLQQPRIGSKRKSKKDAYIIFDTEIESTSPKSEQDSGILDVEDEEDDEEVPGAQDLVDFSPVYRCLHIYSVLGARETFENYYRKQRRKQARLVLQPPSNMHETLDGYRKYFNQIVGFFVVEDHILHTTQGLVNRAYIDELWEMALSKTIAALRTHSSYCSDPNLVLDLKNLIVLFADTLQVYGFPVNQLFDMLLEIRDQYSETLLKKWAGIFRNILDSDNYSPIPVTSEEMYKKVVGQFPFQDIELEKQPFPKKFPFSEFVPKVYNQIKEFIYACLKFSEDLHLSSTEVDDMIRKSTNLLLTRTLSNSLQNVIKRKNIGLTELVQIIINTTHLEKSCKYLEEFITNITNVLPETVHTTKLYGTTTFKDARHAAEEEIYTNLNQKIDQFLQLADYDWMTGDLGNKASDYLVDLIAFLRSTFAVFTHLPVSGSCSYFVLYI | soluble
20 | MIEIEINNAQEITSALERLAQATAHRAPLMRSIAGTMESAVAQNFEVGGRPAWKKLKIRQGTPLVDTENLMASITSEYNNNEAIVGTNEPYAAIHQFGGKAGRGRKVAIPARPFLILTPQDEADILEDIQDYFQLLIK | not soluble
